From IntAct's records for PubMed 28176834 come the findings set out here.

B1: Tudor domain-containing protein 3 (Homo sapiens), Q9H7E2-3 (parent)
chain: MAQVAGAALSQAGWYLSDEGIEACTSSPDKVNVNDIILIALNTDLRTIGKKFLPSDINSGKVEKLEGPCVLQIQKIRNVAAPKDNEESQAAPRMLRLQMTDGHISCTAVEFSYMSKISLNTPPGTKVKLSGIVDIKNGFLLLNDSNTTVLGGEVEHLIEKWELQRSLSKHNRSNIGTEGGPPPFVPFGQKCVSHVQVDSRELDRRKTLQVTMPVKPTNDNDEFEKQRTAAIAEVAKSKETKTFGGGGGGARSNLNMNAAGNRNREVLQKEKSTKSEGKHEGVYRELVDEKALKHITEMGFSKEASRQALMDNGNNLEAALNVLLTSNKQKPVMGPPLRGRGKGRGRIRSEDEEDLGNARPSAPSTLFDFLESKMGTLNVEEPKSQPQQLHQGQYRSSNTEQNGVKDNNHLRHPPRNDTRQPRNEKPPRFQRDSQNSKSVLEGSGLPRNRGSERPSTSSVSEVWAEDRIKCDRPYSRYDRTKDTSYPLGSQHSDGAFKKRDNSMQSRSGKGPSFAEAKENPLPQGSVDYNNQKRGKRESQTSIPDYFYDRKSQTINNEAFSGIKIEKHFNVNTDYQNPVRSNSFIGVPNGEVEMPLKGRRIGPIKPAGPVTAVPCDDKIFYNSGPKRRSGPIKPEKILESSIPMEYAKMWKPGDECFALYWEDNKFYRAEVEALHSSGMTAVVKFIDYGNYEEVLLSNIKPIQTEAWEEEGTYDQTLEFRRGGDGQPRRSTRPTQQFYQPPRARN
partner: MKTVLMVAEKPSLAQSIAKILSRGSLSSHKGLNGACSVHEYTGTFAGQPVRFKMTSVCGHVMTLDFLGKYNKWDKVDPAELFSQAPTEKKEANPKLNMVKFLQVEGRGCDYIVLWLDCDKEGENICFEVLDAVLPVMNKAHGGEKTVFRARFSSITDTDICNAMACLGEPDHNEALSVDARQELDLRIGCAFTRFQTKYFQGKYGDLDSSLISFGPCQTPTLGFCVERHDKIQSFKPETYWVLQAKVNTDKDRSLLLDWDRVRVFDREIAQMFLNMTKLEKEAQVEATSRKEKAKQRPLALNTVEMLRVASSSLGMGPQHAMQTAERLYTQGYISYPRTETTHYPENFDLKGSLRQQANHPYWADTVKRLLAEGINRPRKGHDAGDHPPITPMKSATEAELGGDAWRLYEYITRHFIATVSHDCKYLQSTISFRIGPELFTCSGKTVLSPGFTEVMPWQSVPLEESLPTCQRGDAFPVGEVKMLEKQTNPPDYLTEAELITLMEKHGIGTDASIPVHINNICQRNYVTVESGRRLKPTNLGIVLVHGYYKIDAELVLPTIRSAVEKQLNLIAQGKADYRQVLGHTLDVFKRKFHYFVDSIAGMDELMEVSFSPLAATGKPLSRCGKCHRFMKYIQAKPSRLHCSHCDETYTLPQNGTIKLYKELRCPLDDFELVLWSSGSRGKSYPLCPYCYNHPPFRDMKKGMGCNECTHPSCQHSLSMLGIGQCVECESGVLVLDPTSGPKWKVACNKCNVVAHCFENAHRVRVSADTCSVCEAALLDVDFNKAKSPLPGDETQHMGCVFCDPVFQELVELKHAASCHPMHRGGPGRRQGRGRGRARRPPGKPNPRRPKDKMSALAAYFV
B2: DNA topoisomerase 3-beta-1 (Homo sapiens), O95985 (parent)
chain: B1 partner

One assay covers variants of B1. The following applies: with top3b_human TOP3B, O95985.
In the case of V79S, the “effect of a mutation on the interaction” value is on record as “with no effect”. Still for that read-out and setting: with P92S the entry was “decreasing interaction strength”; with R96M;V109M;F111Y, “with no effect”. For A80S;A81Q;A90K;A91P;P92S, the “effect of a mutation on the interaction” value is listed as “with no effect”.

Take R96M;F139V: the “effect of a mutation on the interaction” value is reported as “with no effect”. As for V79S;P82S, the “effect of a mutation on the interaction” value is on record as “decreasing interaction strength”.

In the case of F111S, the “effect of a mutation on the interaction” value is on record as “with no effect”. For the variant F111Y, the “effect of a mutation on the interaction” value is given as “with no effect”. Still for that read-out and setting: the value for F139S;L141S was “disrupting interaction strength”; that for R96M;V109M was “with no effect”; that for R96M was “with no effect”. For R96A, the “effect of a mutation on the interaction” value is reported as “with no effect”. Take P82S: the “effect of a mutation on the interaction” value is “with no effect”. On the same count and under the same terms, the value for R96M;V109M;F111Y;F139V was “decreasing interaction strength”; that for V109M;F111Y;F139V was “with no effect”. Same read-out and setting: the value for V109S;F111S was “disrupting interaction strength”; that for L141S was “with no effect”. As to M94S, the “effect of a mutation on the interaction” value is given as “disrupting interaction strength”. Same read-out and setting: with F139S the entry was “decreasing interaction strength”. Still for that read-out and setting: with F139V the entry was “with no effect”; with P92S;M94S, “disrupting interaction strength”; with R96M;V109M;F139V, “with no effect”.

For the variant V79S;A80S;A81S;P82S, the “effect of a mutation on the interaction” value is recorded as “decreasing interaction strength”.

On to R96M;F111Y;F139V, for which the “effect of a mutation on the interaction” value is recorded as “with no effect”. On to A80S;A81S, for which the “effect of a mutation on the interaction” value is on record as “with no effect”. Regarding V109S, the “effect of a mutation on the interaction” value is listed as “disrupting interaction strength”. On the same count and under the same terms, the value for V109M was “with no effect”; that for R96M;F111Y was “with no effect”.

Variants of B2 are the subject of another assay. As to conditions: with TDRD3, Q9H7E2-3.
Take D266A: the “effect of a mutation on the interaction” value was “with no effect”.
